Measured values reported in patent US20220275038A1 (TOKYO MEDICAL UNIVERSITY, published 2022).

Legend:
[1] = molecular target: CLSP(1-61)-MycHis (N-terminal region of CLSP, amino acid 1-61, C-terminally tagged with MycHis) (human) (UniProt Q9NZT1); experiment: cell-based or functional assay
[2] = molecular target: CLSPCOL (hybrid polypeptide of CLSP(1-61), MycHisG and the collagen-homologous region of adiponectin) (human); experiment: cell-based or functional assay
[3] = molecular target: human CLSP-MycHis (calmodulin-like skin protein, C-terminally tagged with MycHis) (human) (UniProt Q9NZT1); experiment: cell-based or functional assay
[4] = molecular target: T1, apolipoprotein E4 C-terminally tagged with FLAG (overexpressed in F11 cells, immunoprecipitated with FLAG … (human, UniProt P02649 19-317)); experiment: pull-down of purified MycHis-tagged CLSP proteins with ApoE4-FLAG immunoprecipitated on M2 agarose beads, WB anti-myc [ApoE4 beads]
T1 construct: also called ApoE4-FLAG; ApoE4; not shown: C-terminal FLAG tag

[5] = molecular target: T1, apolipoprotein E4 C-terminally tagged …; experiment: pull-down with immunoprecipitated ApoE4-FLAG, immunoblot (FIG. 15 a, b)
Protocol: (a, b) <Apolipoprotein E4 binds to the C-terminal region of CLSP> A schematic illustration of deletion mutants of CLSP is shown in (a). Apolipoprotein E4 (ApoE4) and adiponectin (ADN), C-terminally tagged with FLAG, were overexpressed in F11 neurohybrid cells by transfection. At 24 hours after the transfection, the cell lysates of F11 cells were prepared. For immunoprecipitation of ApoE4-FLAG and ADN-FLAG using the FLAG antibody, 300 μg of cell lysates was used. Recombinant CLSP-MycHis (FL-MH) or C-terminally MycHis-tagged CLSP deletion mutants produced in bacteria were purified. These immunoprecipitates and recombinant proteins were then subjected to SDS-PAGE and immunoblot analysis using the myc and FLAG antibodies (inputs). The ApoE4-FLAG and ADN-FLAG immunoprecipitates were mixed with recombinant CLSP-MycHis (FL-MH) or C-terminally MycHis-tagged CLSP deletion mutants and incubated at 4° C. overnight, followed by exhaustive washing. The pulled-down precipitates were then subjected to SDS-PAGE and immunoblotted using the myc and FLAG antibodies. (c) <CLSP binds to the collagen-homologous region of adiponectin> The collagen-homologous region of adiponectin (ADNCol), N-terminally tagged with 6×His and G(HisG), was produced in bacteria. In addition, CLSP-FLAG was overexpressed in F11 neurohybrid cells by transfection. […]

[6] = molecular target: T2, recombinant human ApoE4 (PeproTech, cat. no. 350-04) (human, UniProt P02649 19-317); experiment: plate coated with ApoE4, rising CLSP-HiBiT, chemiluminescence (Nano-Glo HiBiT), Scatchard analysis; ApoE4 on the plate
T2 construct: also called apolipoprotein E4
Protocol: (§1) The dissociation constants (Kd) for the binding between CLSP and adiponectin, and between CLSP and ApoE4 were then measured (FIGS. 8b and c). For this purpose, adiponectin or ApoE4 protein was conjugated to the 96-well plates. Various concentrations of recombinant CLSP C-terminally tagged with HiBiT, a chemiluminescence producing tag, were added to the plates for simultaneous incubation. After washing, the amount of CLSP-HiBiT binding to adiponectin or ApoE4 on the wells was measured. The dissociation constant between adiponectin and CLSP or between ApoE4 and CLSP was measured to be 8.8 or 7.8 pM respectively by Scatchard analysis (FIG. 8c).
(§2) The dissociation constant for the binding between ApoE4 (or adiponectin) and CLSP was measured using Nano-Glo HiBiT Extracellular Detection System (Promega, cat. no.: N2420) in accordance with the instruction. For the coating of recombinant ApoE4 or adiponectin, 100 μl of 50 mM carbonate buffer (pH 9.6) containing 20 pM ApoE4 or adiponectin was incubated overnight at 4° C. in the wells of 96-well plates (Fluorescence-use Black-type Plate H, cat. no.: MS-8596KZ, Sumitomo Bakelite Co., Ltd., Tokyo, Japan). The protein-coated plates were washed three times with 200 μl of PBS. Then, 150 μl of PBS containing 1% skim milk (GIBCO) was added to each well. […] Resulting chemiluminescence was measured for each well using Wallac ARVO™ X5 (Perkin Elmer). […]

[7] = molecular target: T3, human adiponectin (BioVendor, cat. no. RD172029100) (human, UniProt Q15848 19-244, limits assumed); experiment: Scatchard analysis; wells coated with 20 pM adiponectin, stepwise CLSP-HiBiT, HiBiT chemiluminescence [plot ADN]
T3 construct: Bought; also called ADN; wild-type adiponectin
T3 sequence: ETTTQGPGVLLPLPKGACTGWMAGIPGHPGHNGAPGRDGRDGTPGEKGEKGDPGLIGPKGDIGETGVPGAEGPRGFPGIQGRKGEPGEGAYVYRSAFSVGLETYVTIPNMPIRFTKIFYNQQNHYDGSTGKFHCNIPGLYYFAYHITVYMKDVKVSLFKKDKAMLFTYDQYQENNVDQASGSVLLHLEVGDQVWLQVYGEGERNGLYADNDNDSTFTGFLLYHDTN
Protocol: (§3) Dissociation constants were calculated by the Scatchard analysis using Prism7 software.
as §1
as §2, with “Japan).” for “Japan). The protein-coated plates were washed three times with 200 μl of PBS. Then, 150 μl of PBS containing 1% skim milk (GIBCO) was added to each well.”

[8] = molecular target: T3, human adiponectin (BioVendor, cat. no. …); experiment: plate coated with adiponectin, rising CLSP-HiBiT, chemiluminescence (Nano-Glo HiBiT), Scatchard analysis; adiponectin on the plate
Protocol: as §1, §2

[9] = molecular target: T2, recombinant human ApoE4 (PeproTech, …); experiment: Scatchard analysis; wells coated with 20 pM recombinant ApoE4, stepwise CLSP-HiBiT, HiBiT chemiluminescence [plot ApoE4]
Protocol: as §3, §1
as §2, with “Japan).” for “Japan). The protein-coated plates were washed three times with 200 μl of PBS. Then, 150 μl of PBS containing 1% skim milk (GIBCO) was added to each well.”

T2 sequence (P02649 19-317 C130R limits assumed): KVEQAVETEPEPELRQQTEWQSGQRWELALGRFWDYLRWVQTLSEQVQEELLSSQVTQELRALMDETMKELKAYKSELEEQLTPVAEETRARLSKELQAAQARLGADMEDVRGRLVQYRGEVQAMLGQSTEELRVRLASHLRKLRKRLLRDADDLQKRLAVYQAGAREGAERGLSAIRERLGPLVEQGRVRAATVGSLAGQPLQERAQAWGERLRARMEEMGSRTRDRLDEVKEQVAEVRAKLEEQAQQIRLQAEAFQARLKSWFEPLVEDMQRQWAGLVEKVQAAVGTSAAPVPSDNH
T1 sequence (P02649 19-317 C130R limits assumed): as above

## calreticulin
[1]
  inhibition of the cell death-suppressing activity of CLSP1-61 (cell death assay, FIG. 19): 10 fold amount
[2]
  inhibition of the cell death-suppressing activity of 100 pM CLSPCOL; concentration at which inhibition began: 1 nM
[3]
  inhibition of the CLSP-mediated protection of V642I-APP-induced neuronal death; concentration for complete inhibition of 10 nM CLSP: 50 nM

## recombinant GST-human 14-3-3σ (from UniProt P31947 1-248)
[1]
  inhibition of the cell death-suppressing activity of CLSP1-61 (cell death assay, FIG. 19): 10 fold amount
[3]
  inhibition of the CLSP-mediated protection of V642I-APP-induced neuronal death; concentration at which inhibition of 10 nM CLSP began: 10 nM
  inhibition of the CLSP-mediated protection of V642I-APP-induced neuronal death; concentration for complete inhibition of 10 nM CLSP: 20 nM

B1: CLSP deletion mutant EHR, C-terminally tagged with MycHis (consists of only the endogenous humanin-homogenous region) (peptide)
chain: TGKNLSEAQLRKLISEVDSDGD
notes: also called mutants consisting of only EHR; not shown: C-terminal MycHis tag
[4]
  binding result: no binding

B2: CLSP(1-61)-MycHis (N-terminal region of CLSP, amino acid 1-61, C-terminally tagged with MycHis) (ligand)
chain: MAGELTPEEEAQYKKAFSAVDTDGNGTINAQELGAALKATGKNLSEAQLRKLISEVDSDGD
notes: Made in bacteria; not shown: C-terminal MycHis tag
[5]
  binding result: no binding

B3: CLSP-HiBiT (recombinant CLSP C-terminally tagged with HiBiT) (ligand)
chain: MAGELTPEEEAQYKKAFSAVDTDGNGTINAQELGAALKATGKNLSEAQLRKLISEVDSDGDGEISFQEFLTAAKKARAGLEDLQVAFRAFDQDGDGHITVDELRRAMAGLGQPLPQEELDAMIREADVDQDGRVNYEEFARMLAQEVSGWRLFKKIS
notes: HiBiT oligonucleotides were put into pGEX-2T-CLSP at the SmaI-EcoRI site; Made 'in the same way' as CLSP-MycHis (GST fusion, thrombin release); also called GST-CLSP-HiBiT (precursor)
[6]
  Kd: 7.8 pM
[7]
  Kd: 7.8 pM
[8]
  Kd: 8.8 pM
[9]
  Kd: 8.8 pM
